Test results from publication PMC2814896.

B1: OCT2 (hOCT2) (Homo sapiens) (protein)
chain: MPTTVDDVLEHGGEFHFFQKQMFFLLALLSATFAPIYVGIVFLGFTPDHRCRSPGVAELSLRCGWSPAEELNYTVPGPGPAGEASPRQCRRYEVDWNQSTFDCVDPLASLDTNRSRLPLGPCRDGWVYETPGSSIVTEFNLVCANSWMLDLFQSSVNVGFFIGSMSIGYIADRFGRKLCLLTTVLINAAAGVLMAISPTYTWMLIFRLIQGLVSKAGWLIGYILITEFVGRRYRRTVGIFYQVAYTVGLLVLAGVAYALPHWRWLQFTVSLPNFFFLLYYWCIPESPRWLISQNKNAEAMRIIKHIAKKNGKSLPASLQRLRLEEETGKKLNPSFLDLVRTPQIRKHTMILMYNWFTSSVLYQGLIMHMGLAGDNIYLDFFYSALVEFPAAFMIILTIDRIGRRYPWAASNMVAGAACLASVFIPGDLQWLKIIISCLGRMGITMAYEIVCLVNAELYPTFIRNLGVHICSSMCDIGGIITPFLVYRLTNIWLELPLMVFGVLGLVAGGLVLLLPETKGKALPETIEEAENMQRPRKNKEKMIYLQVQKLDIPLN
B2: OCT1 (hOCT1) (Homo sapiens) (protein)
chain: MPTVDDILEQVGESGWFQKQAFLILCLLSAAFAPICVGIVFLGFTPDHHCQSPGVAELSQRCGWSPAEELNYTVPGLGPAGEAFLGQCRRYEVDWNQSALSCVDPLASLATNRSHLPLGPCQDGWVYDTPGSSIVTEFNLVCADSWKLDLFQSCLNAGFLFGSLGVGYFADRFGRKLCLLGTVLVNAVSGVLMAFSPNYMSMLLFRLLQGLVSKGNWMAGYTLITEFVGSGSRRTVAIMYQMAFTVGLVALTGLAYALPHWRWLQLAVSLPTFLFLLYYWCVPESPRWLLSQKRNTEAIKIMDHIAQKNGKLPPADLKMLSLEEDVTEKLSPSFADLFRTPRLRKRTFILMYLWFTDSVLYQGLILHMGATSGNLYLDFLYSALVEIPGAFIALITIDRVGRIYPMAMSNLLAGAACLVMIFISPDLHWLNIIIMCVGRMGITIAIQMICLVNAELYPTFVRNLGVMVCSSLCDIGGIITPFIVFRLREVWQALPLILFAVLGLLAAGVTLLLPETKGVALPETMKDAENLGRKAKPKENTIYLKVQTSEPSGT

Tests used:
[1] = substrate: N=C(N)NCCCCN; assay: radiolabeled uptake in hOCT2-HEK293 vs wild-type HEK293 cells; assay type: cell-based, Homo sapiens
[2] = substrate: N=C(N)NCCCCN; assay: saturable uptake in hOCT1-HEK cells; assay type: cell-based, Homo sapiens

| Protein | Km [1] [mM] | Km [2] [mM] |
| --- | --- | --- |
| B1 | 2 | – |
| B2 | – | 30 |
